# Data from PMC9482650, “Quantitative fragmentomics allow affinity mapping of interactomes” (Nature Communications, 2022).
# T1: APBA1_1, Q02410
# T1 sequence (Q02410 651-752, limits assumed, looked up): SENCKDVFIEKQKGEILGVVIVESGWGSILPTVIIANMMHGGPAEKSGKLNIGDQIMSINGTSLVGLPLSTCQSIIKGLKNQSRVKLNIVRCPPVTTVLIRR
# T2: DVL3, Q92997
# T2 sequence (Q92997 244-331, limits assumed, looked up): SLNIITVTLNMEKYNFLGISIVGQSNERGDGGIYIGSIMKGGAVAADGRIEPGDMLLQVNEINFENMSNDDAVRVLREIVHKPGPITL
# T3: GRIP1_2, Q9Y3R0
# T3 sequence (Q9Y3R0 145-248, limits assumed, looked up): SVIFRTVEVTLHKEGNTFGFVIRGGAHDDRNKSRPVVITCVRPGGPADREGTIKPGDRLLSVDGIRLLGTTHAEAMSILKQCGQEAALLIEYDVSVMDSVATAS
# T4: HTRA4, P83105
# T4 sequence (P83105 378-476, limits assumed, looked up): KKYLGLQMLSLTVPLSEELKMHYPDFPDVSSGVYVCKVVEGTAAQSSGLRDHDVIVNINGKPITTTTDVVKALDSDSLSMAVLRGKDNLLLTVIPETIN
# T5: LIN7C, Q9NUP9
# T5 sequence (Q9NUP9 88-185, limits assumed, looked up): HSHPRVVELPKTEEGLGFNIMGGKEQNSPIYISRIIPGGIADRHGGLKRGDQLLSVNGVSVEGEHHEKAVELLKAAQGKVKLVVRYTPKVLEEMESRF
# T6: RAPGEF6, Q8TEU7
# T6 sequence (Q8TEU7 525-625, limits assumed, looked up): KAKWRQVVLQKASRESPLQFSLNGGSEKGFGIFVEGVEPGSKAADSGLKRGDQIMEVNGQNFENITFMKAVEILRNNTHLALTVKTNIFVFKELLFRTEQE
# T7: RHPN1, Q8TCX5
# T7 sequence (Q8TCX5 508-602, limits assumed, looked up): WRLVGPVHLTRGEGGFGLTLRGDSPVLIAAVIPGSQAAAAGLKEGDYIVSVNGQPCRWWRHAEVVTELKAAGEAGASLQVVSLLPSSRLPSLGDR
# T8: SNTA1, Q13424
# T8 sequence (Q13424 82-180, limits assumed, looked up): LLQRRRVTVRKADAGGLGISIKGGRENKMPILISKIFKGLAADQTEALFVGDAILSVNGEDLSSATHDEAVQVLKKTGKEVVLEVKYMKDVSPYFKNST
# T9: SNTB1, Q13884
# T9 sequence (Q13884 107-205, limits assumed, looked up): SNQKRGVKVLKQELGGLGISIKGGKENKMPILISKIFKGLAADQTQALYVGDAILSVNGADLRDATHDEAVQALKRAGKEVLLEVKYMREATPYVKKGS
# T10: SNTG1, Q9NSN8
# T10 sequence (Q9NSN8 52-150, limits assumed, looked up): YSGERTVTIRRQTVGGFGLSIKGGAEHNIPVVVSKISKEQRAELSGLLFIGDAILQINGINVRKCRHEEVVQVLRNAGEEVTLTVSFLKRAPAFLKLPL
# T11: TX1BP3, O14907
# T11 sequence (O14907 10-122, limits assumed, looked up): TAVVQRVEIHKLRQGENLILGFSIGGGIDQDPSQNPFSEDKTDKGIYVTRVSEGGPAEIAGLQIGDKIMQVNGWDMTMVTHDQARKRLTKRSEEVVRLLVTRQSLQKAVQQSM
# How the values were obtained:
# Experiment in all cases: holdup assay
# Parameters in all cases: key: below the threshold = too weak to quantify, mostly under pKd 3.1 to 4
# APBA1_1, Q02410 = molecular target: T1, APBA1_1, Q02410
# ARHGEF12, Q9NZN5-2 = molecular target: ARHGEF12, Q9NZN5-2
# DLG1_2, Q12959 = molecular target: DLG1_2, Q12959
# DLG2_3, Q15700 = molecular target: DLG2_3, Q15700
# DLG5_1, Q8TDM6 = molecular target: DLG5_1, Q8TDM6
# DVL3, Q92997 = molecular target: T2, DVL3, Q92997
# GRIP1_2, Q9Y3R0 = molecular target: T3, GRIP1_2, Q9Y3R0
# GRIP2_3, Q9C0E4 = molecular target: GRIP2_3, Q9C0E4
# HTRA4, P83105 = molecular target: T4, HTRA4, P83105
# IL16_1, Q14005 = molecular target: IL16_1, Q14005
# Inadl_10, Q8NI35 = molecular target: Inadl_10, Q8NI35
# Inadl_8, Q8NI35 = molecular target: Inadl_8, Q8NI35
# LIMK2, P53671 = molecular target: LIMK2, P53671
# LIN7C, Q9NUP9 = molecular target: T5, LIN7C, Q9NUP9
# MAGI2_2, Q86UL8 = molecular target: MAGI2_2, Q86UL8
# MAGI2_5, Q86UL8 = molecular target: MAGI2_5, Q86UL8
# MAST2, Q6P0Q8 = molecular target: MAST2, Q6P0Q8
# NHERF4_1, Q86UT5-2 = molecular target: NHERF4_1, Q86UT5-2
# NHERF4_4, Q86UT5 = molecular target: NHERF4_4, Q86UT5
# RAPGEF6, Q8TEU7 = molecular target: T6, RAPGEF6, Q8TEU7
# RHPN1, Q8TCX5 = molecular target: T7, RHPN1, Q8TCX5
# SNTA1, Q13424 = molecular target: T8, SNTA1, Q13424
# SNTB1, Q13884 = molecular target: T9, SNTB1, Q13884
# SNTG1, Q9NSN8 = molecular target: T10, SNTG1, Q9NSN8
# TJP2_1, Q9UDY2 = molecular target: TJP2_1, Q9UDY2
# TX1BP3, O14907 = molecular target: T11, TX1BP3, O14907
# [1] = plain residues with an end cap or a label only (N-terminal biotin on a linker: ttds)
# [2] = plain residues with an end cap or a label only (N-terminal biotin on a linker: none)
# [3] = plain residues with an end cap or a label only (N-terminal biotin on a linker: ahx)
# IL16_1, Q14005, sequence (Q14005 210-306): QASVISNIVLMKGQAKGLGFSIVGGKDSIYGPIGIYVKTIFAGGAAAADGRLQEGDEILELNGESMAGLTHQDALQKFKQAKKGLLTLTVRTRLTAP
# Inadl_8, Q8NI35, sequence (Q8NI35 1425-1530): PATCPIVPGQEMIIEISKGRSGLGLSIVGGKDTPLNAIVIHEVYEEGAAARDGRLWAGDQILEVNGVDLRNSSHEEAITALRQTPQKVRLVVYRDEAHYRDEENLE
# ARHGEF12, Q9NZN5-2, sequence (Q9NZN5 other isoform, or with tags, fused parts or gaps): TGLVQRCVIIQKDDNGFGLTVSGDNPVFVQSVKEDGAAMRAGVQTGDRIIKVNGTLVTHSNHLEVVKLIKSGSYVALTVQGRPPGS
# MAGI2_2, Q86UL8, sequence (Q86UL8 410-522): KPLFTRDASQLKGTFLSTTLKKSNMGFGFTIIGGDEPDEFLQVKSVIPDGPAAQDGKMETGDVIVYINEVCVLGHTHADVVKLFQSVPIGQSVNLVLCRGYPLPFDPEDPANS
# MAGI2_5, Q86UL8, sequence (Q86UL8 915-1017): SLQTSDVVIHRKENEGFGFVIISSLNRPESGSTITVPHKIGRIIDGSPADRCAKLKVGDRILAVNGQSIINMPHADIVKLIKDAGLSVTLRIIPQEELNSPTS
# MAST2, Q6P0Q8, sequence (Q6P0Q8 1099-1202): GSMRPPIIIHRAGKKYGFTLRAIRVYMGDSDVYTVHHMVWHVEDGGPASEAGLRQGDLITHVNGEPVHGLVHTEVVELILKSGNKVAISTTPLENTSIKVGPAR
# LIMK2, P53671, sequence (P53671 143-248): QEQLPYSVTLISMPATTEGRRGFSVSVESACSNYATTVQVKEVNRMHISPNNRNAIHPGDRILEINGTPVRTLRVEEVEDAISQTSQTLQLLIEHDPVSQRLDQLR
# NHERF4_1, Q86UT5-2, sequence (Q86UT5 other isoform, or with tags, fused parts or gaps): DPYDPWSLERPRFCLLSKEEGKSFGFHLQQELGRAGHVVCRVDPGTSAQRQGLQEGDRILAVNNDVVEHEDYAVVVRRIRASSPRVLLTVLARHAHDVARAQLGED
# DLG5_1, Q8TDM6, sequence (Q8TDM6 617-713): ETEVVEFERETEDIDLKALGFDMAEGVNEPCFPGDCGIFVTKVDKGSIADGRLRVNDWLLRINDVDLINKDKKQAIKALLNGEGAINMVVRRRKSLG
# TJP2_1, Q9UDY2, sequence (Q9UDY2 24-128): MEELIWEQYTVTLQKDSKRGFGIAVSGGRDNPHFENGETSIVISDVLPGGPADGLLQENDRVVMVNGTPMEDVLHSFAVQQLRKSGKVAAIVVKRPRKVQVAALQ
# Inadl_10, Q8NI35, sequence (Q8NI35 1673-1763): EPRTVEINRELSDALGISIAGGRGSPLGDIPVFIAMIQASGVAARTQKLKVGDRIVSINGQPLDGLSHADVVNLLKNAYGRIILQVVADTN
# NHERF4_4, Q86UT5, sequence (Q86UT5 464-550): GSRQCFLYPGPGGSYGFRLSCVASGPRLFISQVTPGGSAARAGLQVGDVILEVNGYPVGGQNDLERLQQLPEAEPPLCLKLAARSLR
# DLG1_2, Q12959, sequence (Q12959 314-412): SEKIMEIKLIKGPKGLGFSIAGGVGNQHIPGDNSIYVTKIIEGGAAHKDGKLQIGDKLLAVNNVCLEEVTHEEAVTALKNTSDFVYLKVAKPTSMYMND
# GRIP2_3, Q9C0E4, sequence (Q9C0E4 238-339): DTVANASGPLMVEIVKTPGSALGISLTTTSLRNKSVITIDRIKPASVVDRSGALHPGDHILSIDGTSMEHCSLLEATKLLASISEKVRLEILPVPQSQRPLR
binder,measurement,setting,value
"PVRVCEETSL [OTULIN, Q96BN8]",pKd,"APBA1_1, Q02410; [1]",below the threshold
same,pKd,"ARHGEF12, Q9NZN5-2; [1]",4.8
same,pKd,"DLG1_2, Q12959; [1]",4.56
same,pKd,"DLG2_3, Q15700; [1]",3.95
same,pKd,"DLG5_1, Q8TDM6; [1]",3.52
same,pKd,"DVL3, Q92997; [1]",below the threshold
same,pKd,"GRIP1_2, Q9Y3R0; [1]",3.69
same,pKd,"GRIP2_3, Q9C0E4; [1]",3.57
same,pKd,"HTRA4, P83105; [1]",below the threshold
same,pKd,"IL16_1, Q14005; [1]",3.53
same,pKd,"Inadl_10, Q8NI35; [1]",3.55
same,pKd,"Inadl_8, Q8NI35; [1]",3.61
same,pKd,"LIMK2, P53671; [1]",below the threshold
same,pKd,"LIN7C, Q9NUP9; [1]",4.06
same,pKd,"MAGI2_2, Q86UL8; [1]",4.09
same,pKd,"MAGI2_5, Q86UL8; [1]",4.13
same,pKd,"MAST2, Q6P0Q8; [1]",5.28
same,pKd,"NHERF4_1, Q86UT5-2; [1]",4.02
same,pKd,"NHERF4_4, Q86UT5; [1]",below the threshold
same,pKd,"RAPGEF6, Q8TEU7; [1]",below the threshold
same,pKd,"RHPN1, Q8TCX5; [1]",4.93
same,pKd,"SNTA1, Q13424; [1]",4.53
same,pKd,"SNTB1, Q13884; [1]",4.61
same,pKd,"SNTG1, Q9NSN8; [1]",4.28
same,pKd,"TJP2_1, Q9UDY2; [1]",below the threshold
same,pKd,"TX1BP3, O14907; [1]",4.37
"NLNSSRVPDLLV [SARS-CoV2-E, P0DTC4]",pKd,"APBA1_1, Q02410; [2]",below the threshold
same,pKd,"ARHGEF12, Q9NZN5-2; [2]",below the threshold
same,pKd,"DLG1_2, Q12959; [2]",below the threshold
same,pKd,"DLG2_3, Q15700; [2]",below the threshold
same,pKd,"DLG5_1, Q8TDM6; [2]",below the threshold
same,pKd,"DVL3, Q92997; [2]",below the threshold
same,pKd,"GRIP1_2, Q9Y3R0; [2]",below the threshold
same,pKd,"GRIP2_3, Q9C0E4; [2]",below the threshold
same,pKd,"HTRA4, P83105; [2]",below the threshold
same,pKd,"IL16_1, Q14005; [2]",below the threshold
same,pKd,"Inadl_10, Q8NI35; [2]",below the threshold
same,pKd,"Inadl_8, Q8NI35; [2]",below the threshold
same,pKd,"LIMK2, P53671; [2]",below the threshold
same,pKd,"LIN7C, Q9NUP9; [2]",below the threshold
same,pKd,"MAGI2_2, Q86UL8; [2]",below the threshold
same,pKd,"MAGI2_5, Q86UL8; [2]",below the threshold
same,pKd,"MAST2, Q6P0Q8; [2]",below the threshold
same,pKd,"NHERF4_1, Q86UT5-2; [2]",below the threshold
same,pKd,"NHERF4_4, Q86UT5; [2]",below the threshold
same,pKd,"RAPGEF6, Q8TEU7; [2]",below the threshold
same,pKd,"RHPN1, Q8TCX5; [2]",below the threshold
same,pKd,"SNTA1, Q13424; [2]",below the threshold
same,pKd,"SNTB1, Q13884; [2]",below the threshold
same,pKd,"SNTG1, Q9NSN8; [2]",below the threshold
same,pKd,"TJP2_1, Q9UDY2; [2]",below the threshold
same,pKd,"TX1BP3, O14907; [2]",below the threshold
"TVICWPGSLV [LNX2, Q8N448]",pKd,"APBA1_1, Q02410; [3]",below the threshold
same,pKd,"ARHGEF12, Q9NZN5-2; [3]",below the threshold
same,pKd,"DLG1_2, Q12959; [3]",4.27
same,pKd,"DLG2_3, Q15700; [3]",4.24
same,pKd,"DLG5_1, Q8TDM6; [3]",below the threshold
same,pKd,"DVL3, Q92997; [3]",3.99
same,pKd,"GRIP1_2, Q9Y3R0; [3]",below the threshold
same,pKd,"GRIP2_3, Q9C0E4; [3]",below the threshold
same,pKd,"HTRA4, P83105; [3]",4.45
same,pKd,"IL16_1, Q14005; [3]",4.54
same,pKd,"Inadl_10, Q8NI35; [3]",4.03
same,pKd,"Inadl_8, Q8NI35; [3]",4.57
same,pKd,"LIMK2, P53671; [3]",below the threshold
same,pKd,"LIN7C, Q9NUP9; [3]",4.98
same,pKd,"MAGI2_2, Q86UL8; [3]",4.26
same,pKd,"MAGI2_5, Q86UL8; [3]",4.35
same,pKd,"MAST2, Q6P0Q8; [3]",4.1
same,pKd,"NHERF4_1, Q86UT5-2; [3]",3.55
same,pKd,"NHERF4_4, Q86UT5; [3]",below the threshold
same,pKd,"RAPGEF6, Q8TEU7; [3]",below the threshold
same,pKd,"RHPN1, Q8TCX5; [3]",3.85
same,pKd,"SNTA1, Q13424; [3]",3.96
same,pKd,"SNTB1, Q13884; [3]",4.1
same,pKd,"SNTG1, Q9NSN8; [3]",3.7
same,pKd,"TJP2_1, Q9UDY2; [3]",3.9
same,pKd,"TX1BP3, O14907; [3]",4.59
